Reference: patent publication US12460006B2, “Antibodies against integrin alpha 11 beta 1” (Momenta Pharmaceuticals, Inc., priority 2019, dated 2025)

T1: I domain of α11β1 (Homo sapiens, UniProt Q9UKX5)
T1 construct: An in-house generated I domain of α11β1 was used; made in house
T1 sequence (Q9UKX5 164-345 limits assumed): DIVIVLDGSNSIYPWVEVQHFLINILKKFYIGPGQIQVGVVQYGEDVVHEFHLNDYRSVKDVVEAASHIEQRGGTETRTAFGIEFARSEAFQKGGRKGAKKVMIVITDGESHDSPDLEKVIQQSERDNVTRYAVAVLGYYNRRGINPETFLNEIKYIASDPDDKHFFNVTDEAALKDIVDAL

B1: 6-A12: mouse anti-α11β1 mAb; VH SEQ ID NO: 127, VL SEQ ID NO: 128 (antibody, V domains shown)
VH: QVTLKESGPGILQPSQTLSLTCSFSGFSLRTFAMGVGWIRQPSGKGLEWLAHIWWDDDKYYNPALKSRLTISKDTSKNQVFLKIANVDTADTATYYCARMPLTFYFDYWGQGTTLTVSS
VL: DVLMTQTPLSLPVSLGDQASISCRSSQSIVHSNGNTYLEWYLQKPGQSPKLLIYKVSTRFSGVPDRFSGSGSGTDFTLKISRVEAEDLGVYYCFQGSHVPFTFGGGTKLEIK
B2: 6-M8: mouse anti-α11β1 mAb; VH SEQ ID NO: 129, VL SEQ ID NO: 130 (antibody, V domains shown)
VH: QVQLQQPGAELVMPGASVKLSCKASGYTFTNYWMHWVKQRPGQGLEWIGEIDPSDSYTNYNQKFKGKATLTVDKSSSTAYMQLSSLTSEDSAVYYCTRQGSTYAWGQGTSVTVSS
VL: DIVMTQAAFSNPVTLGTSASISCRSSKSLLHSNGITYLYWYLQKPGQSPQLLIYQMSNLASGVPDRFSSSGSGTDFTLRISRVEAEDVGVYYCAQNLELPPTFGGGTKLEIK
B3: 9-B11: mouse anti-α11β1 mAb; VH SEQ ID NO: 115, VL SEQ ID NO: 116 (antibody, V domains shown)
VH: QVQLQQPGAELVRPGTSVKLSCKASGYTFTSYWMHWVQQRPGQGLEWIGVIDPSDSYTNYNQKFKGKATLTVDTSSSSAYMQLSSLTSEDSAVYYCARDDVAMDYWGQGTSVTVSS
VL: DIVVTQSPASLAVSLGQRATISCRASESVDSYGNSFIHWYQQKPGQPPKLLIYRASNLKSGIPARFSGSGSRTDFTLTINPVEADDVATYYCQQSNEDPYTFGGGTKLEIK
B4: 7-H14: mouse anti-α11β1 mAb; VH SEQ ID NO: 121, VL SEQ ID NO: 122 (antibody, V domains shown)
VH: QVQLQQPGAELVRPGASVKLSCKPSGYTFTSYWMNWVKQRPGQGLEWIGMIDPSDSETHYNQMFKDKATLTVDKSSNTAYMQLSSLTSEDSAVYYCAQIYYAYDKAYWGQGTLVTVSA
VL: DIVMSQSPSSLAVSVGEKVTMSCKSSQSLLYSSHQKNYLAWYQQKPGQSPKLLIYWASTRESGVPDRFTGSGSGTDFSLTISSVKAEDLAVYYCQEYYSWTFGGGTKLEIK
B5: 7D8B10: rat anti-α11β1 mAb; VH SEQ ID NO: 153, VL SEQ ID NO: 154 (antibody, V domains shown)
VH: MDLRLTYVFIVAILKGVLCEVKLEESGGGLVQPGMSVKLSCATSGFIFSDYWMEWVRQAPGKGLEWVAEIRNKANNYATYYGKSMKGRFTISRDDSKSIVYLQVNSIRSEDTAIYYCAPNFDYWGQGVMVTVSS
VL: MSPVQSLFLLLLWILGTHGDVVLTQTPPTLSATIGQSVSISCRSSQSLLHSTGNTYLNWLLQRPGQPPQLLIYLVSRLESGVPNRFSASGSGTDFTLKISGIEAEDLGVYYCVQSSHTPYTFGTGTKLELK
B6: 6F9: rabbit anti-α11β1 mAb; heavy chain SEQ ID NO: 183, light chain SEQ ID NO: 184 (antibody)
heavy: METGLRWLLLVAVLKGVQCQSLEESGGDLVKPGASLTLTCTASGSSFSSTYWNCWVRQAPGKGLEWIACINAGSGTTYYASWAKGRFTVSKTSSTTVTLQMTSLTAADTATYFCTRDSDGRFSSGYYFNLWGPGTLVTVSSGQPKAPSVFPLAPCCGDTPSSTVTLGCLVKGYLPEPVTVTWNSGTLTNGVRTFPSVRQSSGLYSLSSVVSVTSSSQPVTCNVAHPATNTKVDKTVAPSTCSKPMCPPPELPGGPSVFIFPPKPKDTLMISRTPEVTCVVVDVSQDDPEVQFTWYINNEQVRTARPPLREQQFNSTIRVVSTLPIAHQDWLRGKEFKCKVHNKALPAPIEKTISKARGQPLEPKVYTMGPPREELSSRSVSLTCMINGFYPSDISVEWEKNGKAEDNYKTTPTVLDSDGSYFLYSKLSVPTSEWQRGDVFTCSVMHEALHNHYTQKSISRSPGK
light: MDTRAPTQLLGLLLLWLPGATFAQVLTQTASPVSAAVGGTVTINCQSSQSVYDNNWLAWYQQKPGQPPKLLIDDASKLTSGVSSRFKGSGSGTQFTLTISGVQCDDAATYYCQGAYYSSGWYWAFGGGTEVVVKGDPVAPTVLIFPPAADQVATGTVTIVCVANKYFPDVTVTWEVDGTTQTTGIENSKTPQNSADCTYNLSSTLTLTSTQYNSHKEYTCKVTQGTTSVVQSFNRGDC
B7: 6G4: rabbit anti-α11β1 mAb; heavy chain SEQ ID NO: 181, light chain SEQ ID NO: 182 (antibody)
heavy: METGLRWLLLVAVLKGVQCQQQLEESGGGLVKPGGTLTLTCKASGVALNPYYYMCWVRQAPGKGLEWIACVDADSSGSTYYASWAKGRFTISKTSSTTVTLKMTSLTAADTATYFCARESVDYSSVGIGYVHGTDGLWGPGTLVTVSSGQPKAPSVFPLAPCCGDTPSSTVTLGCLVKGYLPEPVTVTWNSGTLTNGVRTFPSVRQSSGLYSLSSVVSVTSSSQPVTCNVAHPATNTKVDKTVAPSTCSKPMCPPPELPGGPSVFIFPPKPKDTLMISRTPEVTCVVVDVSQDDPEVQFTWYINNEQVRTARPPLREQQFNSTIRVVSTLPIAHQDWLRGKEFKCKVHNKALPAPIEKTISKARGQPLEPKVYTMGPPREELSSRSVSLTCMINGFYPSDISVEWEKNGKAEDNYKTTPTVLDSDGSYFLYSKLSVPTSEWQRGDVFTCSVMHEALHNHYTQKSISRSPGK
light: MDTRAPTQLLGLLLLWLPGARCADIVVTQTPSSVSAAVGGTVTIKCQASQSISNYFSWYQQKPGQPPKLLIYRASTLASGVPSRFKGSGSGTEFTLTISDLECADAATYYCQCTYGRSNSNFFYGFGGGTEVVVKGDPVAPTVLIFPPAADQVATGTVTIVCVANKYFPDVTVTWEVDGTTQTTGIENSKTPQNSADCTYNLSSTLTLTSTQYNSHKEYTCKVTQGTTSVVQSFNRGDC
B8: 4E1: rabbit anti-α11β1 mAb; heavy chain SEQ ID NO: 195, light chain SEQ ID NO: 196 (antibody)
heavy: METGLRWLLLVAVLKGVQCQSLEESGGDLVKPGTSLTLSCTASGFSFGSYYYMCWVRQAPGKGLEWIACIDVGSSGDTYYASWVNGRFTISKTSSTTVTLQMTSLTAADTATYFCARDDTAAGGFGNLELWGPGTLVTVSSGQPKAPSVFPLAPCCGDTPSSTVTLGCLVKGYLPEPVTVTWNSGTLTNGVRTFPSVRQSSGLYSLSSVVSVTSSSQPVTCNVAHPATNTKVDKTVAPSTCSKPMCPPPELPGGPSVFIFPPKPKDTLMISRTPEVTCVVVDVSQDDPEVQFTWYINNEQVRTARPPLREQQFNSTIRVVSTLPIAHQDWLRGKEFKCKVHNKALPAPIEKTISKARGQPLEPKVYTMGPPREELSSRSVSLTCMINGFYPSDISVEWEKNGKAEDNYKTTPTVLDSDGSYFLYSKLSVPTSEWQRGDVFTCSVMHEALHNHYTQKSISRSPGK
light: MDTRAPTQLLGLLLLWLPGARCAFELTQTPSSVSEPVGGTVTIKCQASQSIYSYFSWYQQKPGQPPKRLIYQASTLASGVPSRFKGSGSGTDFTLTISDLECADAATYYCQNNYGRGSGSYFFGFGGGTEVVVKGDPVAPTVLIFPPAADQVATGTVTIVCVANKYFPDVTVTWEVDGTTQTTGIENSKTPQNSADCTYNLSSTLTLTSTQYNSHKEYTCKVTQGTTSVVQSFNRGDC

Legend:
[1] = tested on: myofibroblasts (MF); test: FACS antibody binding to myofibroblasts; set-up: species or system human; settings: binding Yes/No
Outline: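 Human pulmonary fibroblasts, serum-starved 24 h then TGFβ-1-treated 72 h to give myofibroblasts, were blocked with heat-inactivated FBS and stained with anti-α11 antibodies, then PE secondary, 30 min each at 4 °C, before 1% PFA fixation. Binding read by flow cytometry as PE geometric MFI of single cells.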

[2] = molecular target: mouse α11β1 (Mus musculus, UniProt P61622); test: ELISA binding to recombinant mouse α11β1; settings: binding Yes/No
Outline: (§1)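 Direct ELISA against human or mouse α11β1 coated at 0.25 μg/mL; antibody titration 1 h at room temperature, HRP-based colorimetric read-out at 450 nm.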

[3] = tested on: Human Pulmonary Fibroblasts; test: Fibroblast-to-Myofibroblasts Transition (FMT), αSMA expression; format: cell-based; settings: Yes/No
Outline: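 Cells seeded at 20,000/well, serum-starved 24 h, then given TGFβ-1 with or without anti-α11 antibodies for 48 h; polyclonal anti-α11 and isotype IgG served as controls. Fixed, permeabilized cells were stained for αSMA and analysed by flow cytometry (single-cell gMFI). Values are normalized to untreated control as % inhibition.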

[4] = molecular target: T1, I domain of α11β1; test: ELISA binding to in-house generated I domain of α11β1; settings: Yes/No
Outline: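 Plate-coated antigen (0.25 μg/mL, overnight 4° C) probed with antibody dilution series 1 h at room temperature, then biotinylated anti-IgG and streptavidin-HRP, 1 h each. TMB substrate 5 min, stopped, absorbance at 450 nm; in-house I domain of α11β1 used as target.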

[5] = tested on: CHO-K1 cells expressing human α11; test: Cell adhesion inhibition (xCelligence), type I collagen; format: cell-based; settings: Yes/No
Outline: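 CHO-K1 cells expressing human α11 (0.6×10^6 cells/mL) were preincubated with mAbs across a concentration range for 20 min at 37° C, then seeded on wells coated with 100 ng/mL type I collagen and blocked with 3% BSA. Impedance-based adhesion was recorded over 6 h, and maximum adhesion was compared with untreated control.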

[6] = molecular target: human α11β1 (Homo sapiens, UniProt Q9UKX5); test: ELISA binding to recombinant human α11β1; settings: binding Yes/No
Outline: as §1

Chain of human α11β1 (Q9UKX5 23-1141 limits assumed): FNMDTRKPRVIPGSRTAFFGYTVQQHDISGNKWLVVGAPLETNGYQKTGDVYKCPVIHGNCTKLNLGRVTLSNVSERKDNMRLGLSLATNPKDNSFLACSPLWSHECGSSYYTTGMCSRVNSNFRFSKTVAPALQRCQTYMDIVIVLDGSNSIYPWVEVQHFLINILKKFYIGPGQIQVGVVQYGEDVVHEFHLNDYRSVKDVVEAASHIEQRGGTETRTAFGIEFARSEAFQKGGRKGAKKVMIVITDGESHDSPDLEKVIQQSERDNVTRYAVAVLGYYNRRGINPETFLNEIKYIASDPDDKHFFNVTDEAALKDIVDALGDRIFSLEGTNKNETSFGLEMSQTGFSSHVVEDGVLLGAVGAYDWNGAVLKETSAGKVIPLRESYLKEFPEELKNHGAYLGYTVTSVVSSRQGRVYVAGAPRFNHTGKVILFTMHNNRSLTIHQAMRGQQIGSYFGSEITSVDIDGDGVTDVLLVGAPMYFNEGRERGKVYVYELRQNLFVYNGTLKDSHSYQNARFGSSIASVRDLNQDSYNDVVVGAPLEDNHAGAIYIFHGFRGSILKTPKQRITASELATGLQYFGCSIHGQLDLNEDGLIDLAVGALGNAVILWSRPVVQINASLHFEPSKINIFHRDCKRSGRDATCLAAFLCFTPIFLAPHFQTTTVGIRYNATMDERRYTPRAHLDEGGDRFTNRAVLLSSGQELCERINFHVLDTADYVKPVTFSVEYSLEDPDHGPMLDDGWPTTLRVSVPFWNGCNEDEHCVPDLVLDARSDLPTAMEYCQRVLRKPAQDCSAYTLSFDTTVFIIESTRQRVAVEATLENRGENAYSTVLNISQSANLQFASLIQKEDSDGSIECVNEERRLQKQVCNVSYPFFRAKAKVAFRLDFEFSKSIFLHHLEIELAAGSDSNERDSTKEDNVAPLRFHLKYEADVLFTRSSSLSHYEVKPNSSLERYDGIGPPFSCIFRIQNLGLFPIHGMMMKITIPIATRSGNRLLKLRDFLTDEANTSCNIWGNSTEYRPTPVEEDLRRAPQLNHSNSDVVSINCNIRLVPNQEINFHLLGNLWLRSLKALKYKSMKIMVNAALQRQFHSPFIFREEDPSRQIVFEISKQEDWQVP
Chain of human α11β1 (P05556 21-728 partner limits assumed): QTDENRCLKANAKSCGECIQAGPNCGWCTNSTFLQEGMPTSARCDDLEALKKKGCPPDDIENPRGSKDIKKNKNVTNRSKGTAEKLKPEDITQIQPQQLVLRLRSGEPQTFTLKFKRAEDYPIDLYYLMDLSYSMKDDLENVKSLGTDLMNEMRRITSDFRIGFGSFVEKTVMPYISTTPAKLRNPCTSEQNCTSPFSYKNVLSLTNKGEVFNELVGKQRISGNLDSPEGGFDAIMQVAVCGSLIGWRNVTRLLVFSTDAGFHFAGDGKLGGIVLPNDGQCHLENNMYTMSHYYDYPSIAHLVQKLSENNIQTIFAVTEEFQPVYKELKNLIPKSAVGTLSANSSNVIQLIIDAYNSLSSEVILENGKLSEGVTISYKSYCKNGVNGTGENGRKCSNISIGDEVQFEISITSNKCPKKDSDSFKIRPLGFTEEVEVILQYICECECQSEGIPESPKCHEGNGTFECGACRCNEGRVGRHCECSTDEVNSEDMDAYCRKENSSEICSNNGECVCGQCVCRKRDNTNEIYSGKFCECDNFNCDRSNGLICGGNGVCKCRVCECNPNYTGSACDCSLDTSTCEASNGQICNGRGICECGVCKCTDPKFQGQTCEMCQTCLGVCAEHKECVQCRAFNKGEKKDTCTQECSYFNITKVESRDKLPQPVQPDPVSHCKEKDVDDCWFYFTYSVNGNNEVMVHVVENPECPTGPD
Chain of mouse α11β1 (P61622 23-1141 limits assumed): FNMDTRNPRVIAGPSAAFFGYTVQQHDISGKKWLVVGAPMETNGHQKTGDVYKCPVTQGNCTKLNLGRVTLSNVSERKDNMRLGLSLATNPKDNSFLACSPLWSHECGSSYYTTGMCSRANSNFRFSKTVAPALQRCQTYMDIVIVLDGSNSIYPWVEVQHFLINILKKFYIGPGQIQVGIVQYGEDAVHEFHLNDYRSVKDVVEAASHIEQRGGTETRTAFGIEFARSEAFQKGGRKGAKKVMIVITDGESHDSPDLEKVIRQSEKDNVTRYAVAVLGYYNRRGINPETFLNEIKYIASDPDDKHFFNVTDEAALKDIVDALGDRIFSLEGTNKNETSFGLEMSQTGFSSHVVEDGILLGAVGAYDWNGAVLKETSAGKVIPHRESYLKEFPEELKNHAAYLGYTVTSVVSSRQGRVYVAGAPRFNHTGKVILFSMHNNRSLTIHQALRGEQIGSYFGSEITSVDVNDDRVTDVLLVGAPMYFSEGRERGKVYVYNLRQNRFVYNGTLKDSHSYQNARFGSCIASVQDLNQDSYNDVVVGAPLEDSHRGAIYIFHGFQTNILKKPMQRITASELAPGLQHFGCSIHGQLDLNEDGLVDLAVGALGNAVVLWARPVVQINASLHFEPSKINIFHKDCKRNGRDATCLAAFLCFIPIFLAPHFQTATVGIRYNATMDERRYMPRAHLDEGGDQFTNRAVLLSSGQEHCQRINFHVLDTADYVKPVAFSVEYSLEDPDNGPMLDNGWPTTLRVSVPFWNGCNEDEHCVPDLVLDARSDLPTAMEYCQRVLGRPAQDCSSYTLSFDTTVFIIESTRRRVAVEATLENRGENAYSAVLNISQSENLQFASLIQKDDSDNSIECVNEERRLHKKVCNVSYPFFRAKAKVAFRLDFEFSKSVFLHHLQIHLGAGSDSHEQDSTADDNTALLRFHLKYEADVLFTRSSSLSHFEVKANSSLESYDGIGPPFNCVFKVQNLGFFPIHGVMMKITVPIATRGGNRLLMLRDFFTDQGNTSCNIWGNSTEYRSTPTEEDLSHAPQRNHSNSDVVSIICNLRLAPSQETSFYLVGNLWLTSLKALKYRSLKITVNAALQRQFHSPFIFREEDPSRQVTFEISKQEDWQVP
Chain of mouse α11β1 (P09055 21-728 partner limits assumed): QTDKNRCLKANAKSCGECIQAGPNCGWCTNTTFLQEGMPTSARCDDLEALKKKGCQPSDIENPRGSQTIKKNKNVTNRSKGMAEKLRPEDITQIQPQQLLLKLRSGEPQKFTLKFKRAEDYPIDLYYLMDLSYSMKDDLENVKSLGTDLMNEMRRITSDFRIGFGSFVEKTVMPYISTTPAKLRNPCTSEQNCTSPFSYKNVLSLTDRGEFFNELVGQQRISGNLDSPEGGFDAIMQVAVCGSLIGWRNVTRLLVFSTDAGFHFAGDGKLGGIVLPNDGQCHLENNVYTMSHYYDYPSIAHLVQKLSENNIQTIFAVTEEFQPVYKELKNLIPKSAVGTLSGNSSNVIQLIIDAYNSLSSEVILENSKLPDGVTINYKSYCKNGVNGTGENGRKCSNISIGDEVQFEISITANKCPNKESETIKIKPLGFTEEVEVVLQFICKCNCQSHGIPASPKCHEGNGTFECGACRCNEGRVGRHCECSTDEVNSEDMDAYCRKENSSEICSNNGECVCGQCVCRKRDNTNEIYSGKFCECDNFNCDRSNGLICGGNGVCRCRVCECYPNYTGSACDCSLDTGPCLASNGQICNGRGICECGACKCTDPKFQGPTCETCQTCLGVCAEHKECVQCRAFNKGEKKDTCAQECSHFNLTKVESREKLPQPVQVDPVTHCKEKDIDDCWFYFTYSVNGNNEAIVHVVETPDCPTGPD

Molecule	MF FACS [1]	Murine α11β1 ELISA [2]	Inhibition of FMT [3]	I Domain binding [4]	Inhibition of CHO-K1 adhesion to collagen [5]	Human α11β1 ELISA [6]
B1	Yes	Yes/Low	No	Yes	Yes	Yes
B2	No	No	No	No	No	Yes
B3	Yes	No	Yes	Yes	Yes	Yes
B4	Yes	Yes/Low	No	No	No	Yes
B5	Yes	No	Yes	No	No	Yes
B6	Yes	No	No	No	Yes	Yes
B7	Yes	No	No	No	Yes	Yes
B8	Yes	No	No	No	Yes	Yes
